From paper PMC2742444

Experiments:
SOS1 = SOS1 (UniProt Q07889); test: anti-FLAG IP, SRM mass spectrometry; settings: reference: wild type, no EGF
VAV2 = VAV2 (UniProt P52735); test: anti-FLAG IP, SRM mass spectrometry; settings: reference: wild type, no EGF

fold change (SOS1): 1.91 fold
fold change (VAV2): 1.4 fold
Substance: EGFR (chimeric EGFR-FLAG-GFP) (from UniProt P00533) wild type, EGF 15 min
